Patent US11325966

What was measured:
Test in all cases: cell-based or functional assay
JR-CSF R327A (HIV-1) = JR-CSF R327A (HIV-1) (UniProt P20871)
BG505 (T332N) (HIV-1) = biological target: BG505 (T332N) (HIV-1)
[1] = biological target: HIV-1 envelope (Env) of pseudovirus REJO4541.67 (HIV-1)
[2] = biological target: HIV-1 envelope (Env) of pseudovirus CNE8 (HIV-1)
[3] = biological target: HIV-1 envelope (Env) of pseudovirus CNE30 (HIV-1)
[4] = biological target: HIV-1 envelope (Env) of pseudovirus 3817.v2.c59 (HIV-1)
[5] = biological target: HIV-1 envelope (Env) of pseudovirus QH0692.42 (HIV-1)
[6] = biological target: HIV-1 envelope (Env) of pseudovirus Ce0393_C3 (HIV-1)
[7] = biological target: HIV-1 envelope (Env) of pseudovirus R1166.c01 (HIV-1)
[8] = biological target: HIV-1 envelope (Env) of pseudovirus 211-9 (HIV-1)
[9] = biological target: HIV-1 envelope (Env) of pseudovirus CNE5 (HIV-1)
[10] = biological target: HIV-1 envelope (Env) of pseudovirus ZM109F.PB4 (HIV-1)
[11] = biological target: HIV-1 envelope (Env) of pseudovirus THRO4156.18 (HIV-1)
[12] = biological target: HIV-1 envelope (Env) of pseudovirus CNE52 (HIV-1)
[13] = biological target: HIV-1 envelope (Env) of pseudovirus WEAU_d15_410_787 (HIV-1)
[14] = biological target: HIV-1 envelope (Env) of pseudovirus Ce2010_F5 (HIV-1)
[15] = biological target: HIV-1 envelope (Env) of pseudovirus 1394C9G1 (Rev-) (HIV-1)
[16] = biological target: HIV-1 envelope (Env) of pseudovirus T255-34 (HIV-1)
[17] = biological target: HIV-1 envelope (Env) of pseudovirus Q259.d2.17 (HIV-1)
[18] = biological target: HIV-1 envelope (Env) of pseudovirus 6244_13_B5_4576 (HIV-1)
[19] = biological target: HIV-1 envelope (Env) of pseudovirus 9004SS_A3_4 (HIV-1)
[20] = biological target: HIV-1 envelope (Env) of pseudovirus SC422661.8 (HIV-1)
[21] = biological target: HIV-1 envelope (Env) of pseudovirus Q461.e2 (HIV-1)
[22] = biological target: HIV-1 envelope (Env) of pseudovirus BJOX015000.11.5 (HIV-1)
[23] = biological target: HIV-1 envelope (Env) of pseudovirus 6540.v4.c1 (HIV-1)
[24] = biological target: HIV-1 envelope (Env) of pseudovirus 928-28 (HIV-1)
[25] = biological target: HIV-1 envelope (Env) of pseudovirus 3016.v5.c45 (HIV-1)
[26] = biological target: HIV-1 envelope (Env) of pseudovirus YU2_WT (HIV-1) (UniProt P35961)
[27] = biological target: HIV-1 envelope (Env) of pseudovirus PVO.4 (HIV-1)
[28] = biological target: HIV-1 envelope (Env) of pseudovirus C4118.c09 (HIV-1)
[29] = biological target: HIV-1 envelope (Env) of pseudovirus X2088_c9 (HIV-1)
[30] = biological target: HIV-1 envelope (Env) of pseudovirus 0815.v3.c3 (HIV-1)
[31] = biological target: HIV-1 envelope (Env) of pseudovirus 231966.c02 (HIV-1)
[32] = biological target: HIV-1 envelope (Env) of pseudovirus 620345.c01 (HIV-1)
[33] = biological target: HIV-1 envelope (Env) of pseudovirus 89-F1_2_25 (HIV-1)
[34] = biological target: HIV-1 Env of pseudovirus ZM247v1 (Rev-) (HIV-1)
[35] = biological target: HIV-1 YU2 Env N160K, on pseudovirus (HIV-1) (UniProt P35961)
[36] = biological target: HIV-1 Env of pseudovirus C3347.H1 (HIV-1)

Substance: 354BG8 (antibody)
- IC50 in TZM-bl assay (JR-CSF R327A (HIV-1)): 0.005 µg/mL
- IC50 in TZM-bl assay (BG505 (T332N) (HIV-1)): 0.007 µg/mL

Substance: BG1 (antibody)
- IC50 in TZM-bl assay [1]: 0.342 µg/mL
- IC80 in TZM-bl assay [1]: 1.66 µg/mL
- IC50 in TZM-bl assay [2]: > 30 µg/mL
- IC80 in TZM-bl assay [2]: > 30 µg/mL
- IC50 in TZM-bl assay [3]: > 30 µg/mL
- IC80 in TZM-bl assay [3]: > 30 µg/mL
- IC50 in TZM-bl assay [4]: 11.1 µg/mL
- IC80 in TZM-bl assay [4]: > 30 µg/mL
- IC50 in TZM-bl assay [5]: > 30 µg/mL
- IC80 in TZM-bl assay [5]: > 30 µg/mL
- IC50 in TZM-bl assay [6]: > 30 µg/mL
- IC80 in TZM-bl assay [6]: > 30 µg/mL
- IC50 in TZM-bl assay [7]: > 30 µg/mL
- IC80 in TZM-bl assay [7]: > 30 µg/mL
- IC50 in TZM-bl assay [8]: 2.85 µg/mL
- IC80 in TZM-bl assay [8]: 12.9 µg/mL
- IC50 in TZM-bl assay [9]: 0.351 µg/mL
- IC80 in TZM-bl assay [9]: 1.28 µg/mL
- IC50 in TZM-bl assay [10]: > 30 µg/mL
- IC80 in TZM-bl assay [10]: > 30 µg/mL
- IC50 in TZM-bl assay [11]: > 30 µg/mL
- IC80 in TZM-bl assay [11]: > 30 µg/mL
- IC50 in TZM-bl assay [12]: 0.975 µg/mL
- IC80 in TZM-bl assay [12]: 5.01 µg/mL
- IC50 in TZM-bl assay [13]: > 30 µg/mL
- IC80 in TZM-bl assay [13]: > 30 µg/mL
- IC50 in TZM-bl assay [14]: > 30 µg/mL
- IC80 in TZM-bl assay [14]: > 30 µg/mL
- IC50 in TZM-bl assay [15]: 1.28 µg/mL
- IC80 in TZM-bl assay [15]: 7.25 µg/mL
- IC50 in TZM-bl assay [16]: 11.6 µg/mL
- IC80 in TZM-bl assay [16]: > 30 µg/mL
- IC50 in TZM-bl assay [17]: > 30 µg/mL
- IC80 in TZM-bl assay [17]: > 30 µg/mL
- IC50 in TZM-bl assay [18]: > 30 µg/mL
- IC80 in TZM-bl assay [18]: > 30 µg/mL
- IC50 in TZM-bl assay [19]: > 30 µg/mL
- IC80 in TZM-bl assay [19]: > 30 µg/mL
- IC50 in TZM-bl assay [20]: > 30 µg/mL
- IC80 in TZM-bl assay [20]: > 30 µg/mL
- IC50 in TZM-bl assay [21]: > 30 µg/mL
- IC80 in TZM-bl assay [21]: > 30 µg/mL
- IC50 in TZM-bl assay [22]: > 30 µg/mL
- IC80 in TZM-bl assay [22]: > 30 µg/mL
- IC50 in TZM-bl assay [23]: > 30 µg/mL
- IC80 in TZM-bl assay [23]: > 30 µg/mL
- IC50 in TZM-bl assay [24]: > 30 µg/mL
- IC80 in TZM-bl assay [24]: > 30 µg/mL
- IC50 in TZM-bl assay [25]: > 30 µg/mL
- IC80 in TZM-bl assay [25]: > 30 µg/mL
- IC50 in TZM-bl assay [26]: 15.8 µg/mL
- IC80 in TZM-bl assay [26]: > 30 µg/mL
- IC50 in TZM-bl assay [27]: > 30 µg/mL
- IC80 in TZM-bl assay [27]: > 30 µg/mL
- IC50 in TZM-bl assay [28]: 22.8 µg/mL
- IC80 in TZM-bl assay [28]: > 30 µg/mL
- IC50 in TZM-bl assay [29]: > 30 µg/mL
- IC80 in TZM-bl assay [29]: > 30 µg/mL
- IC50 in TZM-bl assay [30]: > 30 µg/mL
- IC80 in TZM-bl assay [30]: > 30 µg/mL
- IC50 in TZM-bl assay [31]: > 30 µg/mL
- IC80 in TZM-bl assay [31]: > 30 µg/mL
- IC50 in TZM-bl assay [32]: 0.626 µg/mL
- IC80 in TZM-bl assay [32]: 4.23 µg/mL
- IC50 in TZM-bl assay [33]: > 30 µg/mL
- IC80 in TZM-bl assay [33]: > 30 µg/mL

Substance: BG18 IgG (354BG18) (antibody)
- IC50 in TZM-bl assay [34]: 1.45 µg/mL
- IC80 in TZM-bl assay [34]: 8.72 µg/mL
- IC50 in TZM-bl assay [35]: 0.028 µg/mL
- IC80 in TZM-bl assay [35]: 0.15 µg/mL

Substance: PGT121 (antibody)
- IC50 in TZM-bl assay [36]: > 10 µg/mL
- IC80 in TZM-bl assay [36]: > 10 µg/mL
